From US20230077205A1

Legend:
[1] = biological target: Protein A, MabSelect Sure (protein A affinity resin ligand); test: resin slurry partitioning on MabSelect Sure protein A resin; reference Ab6; Elute: 20 mM NaAcetate, pH 3.5
[2] = biological target: Protein A, MabSelect Sure (protein A affinity resin ligand); test: resin slurry partitioning on MabSelect Sure protein A resin; reference Ab6; Strip: 100 mM acetic acid
[3] = biological target: Protein A, MabSelect Sure (protein A affinity resin ligand); test: resin slurry partitioning on MabSelect Sure protein A resin; reference Ab6; Equil/wash: 10 mM NaPhosphate, pH 6.5
[4] = biological target: Protein A, MabSelect Sure (protein A affinity resin ligand); test: resin slurry partitioning on MabSelect Sure protein A resin; reference Ab6; High salt wash: 10 mM NaPhosphate, pH 6.5, 0.5M NaCl

log α (log Kp PLBL2 - log Kp Ab6) [1] | log α (log Kp PLBL2 - log Kp Ab6) [2] | log α (log Kp PLBL2 - log Kp Ab6) [3] | log α (log Kp PLBL2 - log Kp Ab6) [4] | Substance
-0.3 | – | – | – | PLBL2
– | 0 | -2 | -2 | PLBL2 (enzyme)
